Assay results published in patent US20200292536A1.

Tests used:
[1] = molecular target: BCL2 peptide Ac-…-amide (amino acids 41-54 of human BCL2 with linkers) (human); experiment: imaging mass cytometry; peptide 2.50E-04 M in core (second core); Ab 5 ug/ml
[2] = molecular target: BCL2 peptide Ac-…-amide (amino acids 41-54 of human BCL2 with linkers) (human); experiment: imaging mass cytometry; peptide 2.50E-07 M in core; Ab 10 ug/ml
[3] = molecular target: BCL2 peptide Ac-…-amide (amino acids 41-54 of human BCL2 with linkers) (human); experiment: imaging mass cytometry; peptide 2.50E-07 M in core
[4] = molecular target: BCL2 peptide Ac-…-amide (amino acids 41-54 of human BCL2 with linkers) (human); experiment: imaging mass cytometry; peptide 2.50E-08 M in core (second core); Ab 1 ug/ml
[5] = molecular target: BCL2 peptide Ac-…-amide (amino acids 41-54 of human BCL2 with linkers) (human); experiment: imaging mass cytometry; peptide 2.50E-04 M in core; Ab 10 ug/ml
[6] = molecular target: BCL2 peptide Ac-…-amide (amino acids 41-54 of human BCL2 with linkers) (human); experiment: imaging mass cytometry; peptide 2.50E-04 M in core; Ab 5 ug/ml
[7] = molecular target: BCL2 peptide Ac-…-amide (amino acids 41-54 of human BCL2 with linkers) (human); experiment: imaging mass cytometry; peptide 2.50E-05 M in core (second core); Ab 1 ug/ml
[8] = molecular target: Bovine serum albumin (BSA; Ultra Pure) (bovine) (UniProt P02769); experiment: imaging mass cytometry; no peptide (background core); Ab 10 ug/ml
Chain of UniProt P02769 (P02769 25-607 limits assumed): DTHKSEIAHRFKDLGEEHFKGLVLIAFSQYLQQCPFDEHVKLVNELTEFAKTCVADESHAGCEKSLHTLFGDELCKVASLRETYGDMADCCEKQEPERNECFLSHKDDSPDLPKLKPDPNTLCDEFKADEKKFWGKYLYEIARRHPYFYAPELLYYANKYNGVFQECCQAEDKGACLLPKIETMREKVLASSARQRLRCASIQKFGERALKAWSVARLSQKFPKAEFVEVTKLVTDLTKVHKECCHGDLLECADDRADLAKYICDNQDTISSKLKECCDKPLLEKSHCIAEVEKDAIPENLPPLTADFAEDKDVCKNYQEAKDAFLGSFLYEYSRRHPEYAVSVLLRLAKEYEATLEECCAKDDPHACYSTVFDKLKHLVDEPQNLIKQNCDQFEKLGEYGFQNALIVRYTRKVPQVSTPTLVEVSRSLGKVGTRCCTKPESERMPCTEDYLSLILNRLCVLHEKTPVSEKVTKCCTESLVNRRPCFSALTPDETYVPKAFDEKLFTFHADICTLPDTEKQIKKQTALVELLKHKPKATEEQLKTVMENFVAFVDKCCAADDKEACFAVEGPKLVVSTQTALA

[9] = molecular target: BCL2 peptide Ac-…-amide (amino acids 41-54 of human BCL2 with linkers) (human); experiment: imaging mass cytometry; peptide 2.50E-08 M in core; Ab 10 ug/ml
[10] = molecular target: Bovine serum albumin (BSA; Ultra Pure) (bovine) (UniProt P02769); experiment: imaging mass cytometry; no peptide (background cores)
[11] = molecular target: BCL2 peptide Ac-…-amide (amino acids 41-54 of human BCL2 with linkers) (human); experiment: imaging mass cytometry; peptide 2.50E-04 M in core; Ab 1 ug/ml
[12] = molecular target: BCL2 peptide Ac-…-amide (amino acids 41-54 of human BCL2 with linkers) (human); experiment: imaging mass cytometry; peptide 2.50E-06 M in core (second core); Ab 1 ug/ml
[13] = molecular target: Bovine serum albumin (BSA; Ultra Pure) (bovine) (UniProt P02769); experiment: imaging mass cytometry; no peptide (second background core); Ab 5 ug/ml
[14] = molecular target: Bovine serum albumin (BSA; Ultra Pure) (bovine) (UniProt P02769); experiment: imaging mass cytometry; no peptide (second background core); Ab 10 ug/ml
[15] = molecular target: BCL2 peptide Ac-…-amide (amino acids 41-54 of human BCL2 with linkers) (human); experiment: imaging mass cytometry; peptide 2.50E-06 M in core; Ab 10 ug/ml
[16] = molecular target: BCL2 peptide Ac-…-amide (amino acids 41-54 of human BCL2 with linkers) (human); experiment: imaging mass cytometry; peptide 2.50E-05 M in core; Ab 5 ug/ml
[17] = molecular target: BCL2 peptide Ac-…-amide (amino acids 41-54 of human BCL2 with linkers) (human); experiment: imaging mass cytometry; peptide 2.50E-04 M in core
[18] = molecular target: BCL2 peptide Ac-…-amide (amino acids 41-54 of human BCL2 with linkers) (human); experiment: imaging mass cytometry; peptide 2.50E-06 M in core; Ab 1 ug/ml
[19] = molecular target: BCL2 peptide Ac-…-amide (amino acids 41-54 of human BCL2 with linkers) (human); experiment: imaging mass cytometry; peptide 2.50E-08 M in core; Ab 5 ug/ml
[20] = molecular target: BCL2 peptide Ac-…-amide (amino acids 41-54 of human BCL2 with linkers) (human); experiment: imaging mass cytometry; peptide 2.50E-04 M in core (second core); Ab 1 ug/ml
[21] = molecular target: BCL2 peptide Ac-…-amide (amino acids 41-54 of human BCL2 with linkers) (human); experiment: imaging mass cytometry; peptide 2.50E-08 M in core (second core); Ab 5 ug/ml
[22] = molecular target: BCL2 peptide Ac-…-amide (amino acids 41-54 of human BCL2 with linkers) (human); experiment: imaging mass cytometry; peptide 2.50E-06 M in core; Ab 5 ug/ml
[23] = molecular target: BCL2 peptide Ac-…-amide (amino acids 41-54 of human BCL2 with linkers) (human); experiment: imaging mass cytometry; peptide 2.50E-07 M in core (second core); Ab 5 ug/ml
[24] = molecular target: BCL2 peptide Ac-…-amide (amino acids 41-54 of human BCL2 with linkers) (human); experiment: imaging mass cytometry; peptide 2.50E-07 M in core (second core); Ab 1 ug/ml
[25] = molecular target: BCL2 peptide Ac-…-amide (amino acids 41-54 of human BCL2 with linkers) (human); experiment: imaging mass cytometry; peptide 2.50E-06 M in core
[26] = molecular target: BCL2 peptide Ac-…-amide (amino acids 41-54 of human BCL2 with linkers) (human); experiment: imaging mass cytometry; peptide 2.50E-05 M in core
[27] = molecular target: Bovine serum albumin (BSA; Ultra Pure) (bovine) (UniProt P02769); experiment: imaging mass cytometry; no peptide (second background core); Ab 1 ug/ml
[28] = molecular target: BCL2 peptide Ac-…-amide (amino acids 41-54 of human BCL2 with linkers) (human); experiment: imaging mass cytometry; peptide 2.50E-08 M in core (second core); Ab 10 ug/ml
[29] = molecular target: BCL2 peptide Ac-…-amide (amino acids 41-54 of human BCL2 with linkers) (human); experiment: imaging mass cytometry; peptide 2.50E-08 M in core; Ab 1 ug/ml
[30] = molecular target: BCL2 peptide Ac-…-amide (amino acids 41-54 of human BCL2 with linkers) (human); experiment: imaging mass cytometry; peptide 2.50E-06 M in core (second core); Ab 10 ug/ml
[31] = molecular target: BCL2 peptide Ac-…-amide (amino acids 41-54 of human BCL2 with linkers) (human); experiment: imaging mass cytometry; peptide 2.50E-05 M in core (second core); Ab 10 ug/ml

Chain of BCL2 peptide Ac-…-amide (amino acids 41-54 of human BCL2 with linkers) (human) (peptide, as listed by the source): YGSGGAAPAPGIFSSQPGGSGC

With Fluidigm EPR17509-^146Nd antibody the Integrated Ion counts (per 150 micron square ROI) [1] was 37400 ion counts, the Integrated Ion counts (per 150 micron square ROI) [2] was 1550 ion counts and the Average Ion count [3] was 1740 ion counts. The Ion count above background [3] was 562 ion counts, the Moles ^146Nd Ab detected per ROI [3] was 3.15e-19 mol and the ^146Nd Ab/peptide [3] was 1.4%. The Integrated Ion counts (per 150 micron square ROI) [4] was 1410 ion counts, the Integrated Ion counts (per 150 micron square ROI) [5] was 87400 ion counts and the Integrated Ion counts (per 150 micron square ROI) [6] was 35300 ion counts. For the same substance, the Integrated Ion counts (per 150 micron square ROI) [7] was 43900 ion counts, the Integrated Ion counts (per 150 micron square ROI) [8] was 979 ion counts and the Integrated Ion counts (per 150 micron square ROI) [9] was 1230 ion counts. For the same substance, the Average Ion count [10] was 1280 ion counts, the Integrated Ion counts (per 150 micron square ROI) [11] was 59300 ion counts and the Integrated Ion counts (per 150 micron square ROI) [12] was 7700 ion counts. For the same substance, the Integrated Ion counts (per 150 micron square ROI) [13] was 2380 ion counts, the Integrated Ion counts (per 150 micron square ROI) [14] was 1160 ion counts and the Integrated Ion counts (per 150 micron square ROI) [15] was 789000 ion counts. For the same substance, the Integrated Ion counts (per 150 micron square ROI) [16] was 16600 ion counts, the Average Ion count [17] was 58300 ion counts and the Ion count above background [17] was 56900 ion counts. It also gave a Moles ^146Nd Ab detected per ROI [17] of 3.2e-17 mol, a ^146Nd Ab/peptide [17] of 0.14% and an Integrated Ion counts (per 150 micron square ROI) [18] of 7750 ion counts. It also gave an Integrated Ion counts (per 150 micron square ROI) [19] of 976 ion counts, an Integrated Ion counts (per 150 micron square ROI) [20] of 42200 ion counts and an Integrated Ion counts (per 150 micron square ROI) [21] of 2070 ion counts. The Integrated Ion counts (per 150 micron square ROI) [22] was 4290 ion counts, the Integrated Ion counts (per 150 micron square ROI) [23] was 1400 ion counts and the Integrated Ion counts (per 150 micron square ROI) [24] was 2380 ion counts. It also gave an Average Ion count [25] of 6400 ion counts, an Ion count above background [25] of 522 ion counts and a Moles ^146Nd Ab detected per ROI [25] of 2.93e-18 mol. It also gave a ^146Nd Ab/peptide [25] of 1.3%, an Average Ion count [26] of 32600 ion counts and an Ion count above background [26] of 31500 ion counts. It also gave a Moles ^146Nd Ab detected per ROI [26] of 1.76e-17 mol, a ^146Nd Ab/peptide [26] of 0.78% and an Integrated Ion counts (per 150 micron square ROI) [27] of 1310 ion counts. The Integrated Ion counts (per 150 micron square ROI) [28] was 1720 ion counts, the Integrated Ion counts (per 150 micron square ROI) [29] was 1450 ion counts and the Integrated Ion counts (per 150 micron square ROI) [30] was 3910 ion counts. The Integrated Ion counts (per 150 micron square ROI) [31] was 48700 ion counts.
